The assay has as its system C. crescentus cells. The assay can be described thus: FRAP analysis of MipZ-YFP mobility. In kind it is cell-based, Caulobacter crescentus. From the text:
Due to their association with chromosomal DNA, MipZ dimers should display slower diffusion rates than monomers. To test this hypothesis, we monitored the mobility of wild-type and mutant MipZ-YFP fusions using fluorescence recovery after photobleaching (FRAP) analysis. […] Concurrent with the reappearance of fluorescence at the bleached pole, the intensity of the unbleached focus decreased, while the total integrated fluorescence remained constant within the cell.
Figure 5 FRAP Analysis of MipZ Diffusion (A and C) FRAP experiments on cells producing a wild-type MipZ-YFP fusion (A) or a MipZ-D42A fusion (C). Cells of strain MT177 (WT) or MT197 (D42A) were shifted from M2GN to M2G medium containing 0.3% xylose and cultivated for another 4 hr to deplete wild-type MipZ and synthesize the indicated fusion protein instead. Single polar MipZ-YFP foci were photo-bleached (white circles), and recovery was followed by fluorescence microscopy (scale bars represent 2 μm). (B, D, and E) Quantification of the recovery rate in cells producing YFP fusions to wild-type MipZ (MT177) (B), MipZ-D42A (MT197) (D), and MipZ-G14V (MT178) (E). FRAP experiments were performed as described in (A). The graphs show the average relative integrated intensities of the bleached region, an unbleached region of equal size at the opposite pole, and the remaining area of the cell plotted as a function of time. The recovery half-times (t1/2), as determined by fitting of the data to single-exponential functions (red lines), are given on top of the graphs. […] (F) Quantification of the recovery rate of MipZ-YFP in cells depleted of ParB. Strain MT148 was grown in M2G medium for 15 hr and analyzed as described in (B), (D), and (E). […] The recovery half-time measured before depletion of ParB was 11.8 s (±1.2 s; n = 34) (data not shown). See also Figure S6. […] It is uncertain whether they count as substance results. / All panels: the lowered sign after t is very small and is read as ½.
Figure S6. Fluorescence-recovery-after-photobleaching analysis of MipZ mobility, Related to Figure 5.
(A) Representative images of FRAP experiments on cells producing mutant MipZ-YFP fusions. Cells of strains DK2 (K13A), MT178 (G14V) and MT179 (K18Q), which express wild-type mipZ under the control of the ammonium-repressible PnrtX promoter and the indicated mipZ-eyfp allele under the control of the xylose-inducible Pxyl promoter, were shifted from M2GN to M2G medium containing 0.3% xylose and cultivated for another 4 h to deplete wild-type MipZ and synthesize the fusion protein instead. Single polar regions were photo-bleached, and recovery was followed by fluorescence microscopy (bars: 2 µm). The bleached regions are highlighted by circles.
(B) Cells of strain MT177 (ΔmipZ PnrtX::mipZ Pxyl::mipZ-eyfp) were grown as described in (A). Chloramphenicol (20 µg/ml) was added to the growing culture 25 min prior to harvest as well as to the agarose pads used for the FRAP experiments. Fitting of the data to a single exponential equation yielded a recovery half-time of 12.4 s (± 0.5 s).
(C) Cells of strain MT97 (mipZ-eyfp) were grown in M2G medium and subjected to FRAP analysis. The fitted curve corresponds to a recovery half-time of 12.0 s (± 1.2 s).
(D and E) Cells of strains (D) DK2 (ΔmipZ PnrtX::mipZ Pxyl::mipZK13A-eyfp) and (E) MT179 (ΔmipZ PnrtX::mipZ Pxyl::mipZK18Q-eyfp) were grown as described in (A) and subjected to FRAP analysis. […]

B1: MipZ: P loop ATPase and cell division inhibitor of Caulobacter crescentus; hexahistidine-tagged in vitro, YFP fusion in FRAP (protein)
chain: MAETRVIVVGNEKGGAGKSTIAVHLVTALLYGGAKVAVIDLDLRQRTSARFFENRRAWLDNKKIELPEPLALNLSDNDVALAERPEEEQVAGFEAAFARAMAECDFILIDTPGGDSAITRMAHGRADLVVTPMNDSFVDFDMLGTVDPVTLELTKPSLYSLTVWEGRKQRALSGQRQAMDWVVLRNRLATTEARNRKRLEDRLNALAKRVGFRIGPGLRDRVIYRELFPFGLTIADLSPQVRPVPVSLQHLAARQELRALMHSLGLSAYSGETMLAAQ
modifications: left off: His6, end not stated, state not stated
notes: hexahistidine-tagged in vitro, YFP fusion in FRAP
In the case of B1, the “recovery half-time (t1/2)” value runs as follows: (MipZ-YFP in cells depleted of ParB (strain MT148)) 3.2 s; (YFP fusion, xylose-induced, cells depleted of wild-type MipZ, polar region bleached) 10.7 s. Moreover, the recovery half-time is listed as 12.0 s (strain MT97 (mipZ-eyfp), M2G medium, not inducible promoter); 11.8 s (strain MT148 before depletion of ParB); 12.4 s (strain MT177, chloramphenicol 20 µg/ml).

(Values after paper PMC3355305, “Localized Dimerization and Nucleoid Binding Drive Gradient Formation by the Bacterial Cell Division Inhibitor MipZ” (Molecular Cell, 2012).)
